Results: the supplement of paper PMC7125110
± gives the standard error. This sample holds only a part of the variants without activity.

B1: glmS ribozyme (parent)
chain: AUAAAAGCGCCAGAACUACAGAAAUGUAGUUGACGAGGAGGAGGUUUAUCGAAUUUUCGGCGGAUGCCUCCAAA

Columns and labels:
Details in all cases: with glucosamine-6-phosphate
glucosamine-6-phosphate [1] = variants of: B1; test: self-cleavage kobs at 40 uM GlcN6P; higher = faster cleavage; RNA array
How it was run: (§1)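 A hybridised Cy3 probe tracked barcoded ribozyme variants, transcribed in situ by E. coli RNA polymerase on sequenced MiSeq chips, at 37 °C. The variants received 40 μM to 10 mM glucosamine-6-phosphate in HEPES/KCl/Mg(OAc)2 buffer. kobs came from decay fits and kcat and KM from weighted Michaelis–Menten fits.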

glucosamine-6-phosphate [2] = variants of: B1; test: self-cleavage kobs at 10000 uM GlcN6P; higher = faster cleavage; RNA array
How it was run: as §1

glucosamine-6-phosphate [3] = variants of: B1; test: self-cleavage kobs at 640 uM GlcN6P; higher = faster cleavage; RNA array
How it was run: as §1

glucosamine-6-phosphate [4] = variants of: B1; test: self-cleavage kobs at 2500 uM GlcN6P; higher = faster cleavage; RNA array
How it was run: as §1

glucosamine-6-phosphate [5] = variants of: B1; test: self-cleavage kobs at 160 uM GlcN6P; higher = faster cleavage; RNA array
How it was run: as §1

Variant	self-cleavage kobs at 40 uM GlcN6P (glucosamine-6-phosphate [1]) [s⁻¹]	self-cleavage kobs at 10000 uM GlcN6P (glucosamine-6-phosphate [2]) [s⁻¹]	self-cleavage kobs at 640 uM GlcN6P (glucosamine-6-phosphate [3]) [s⁻¹]	self-cleavage kobs at 2500 uM GlcN6P (glucosamine-6-phosphate [4]) [s⁻¹]	self-cleavage kobs at 160 uM GlcN6P (glucosamine-6-phosphate [5]) [s⁻¹]
G29C U45A C68G	< 1e-05	< 1e-05			
A15C U69C	0.000108 ± 2.5e-05	0.00087 ± 0.00022	0.000226 ± 8.5e-05	0.000165 ± 4.4e-05	
A15G G37A A39C C61U U69G	< 1e-05				
C16U G59C	< 1e-05	< 1e-05	< 1e-05		
A15U A39C G41C	< 1e-05		< 1e-05	< 1e-05	
A15U C71U	0.000165 ± 1.3e-05	0.00793 ± 0.0013	0.00103 ± 9e-05	0.00528 ± 0.00075	0.00037 ± 4.8e-05
C16A U55A G63U	< 1e-05				
A15G U65C U69A	< 1e-05				
A15C G29C U30C U31G G38C G60A U69G	< 1e-05				
G29A A36U	< 1e-05		< 1e-05	< 1e-05	
C16U C67U	0.000314 ± 3.3e-05	0.0126 ± 0.0021	0.00186 ± 0.00024	0.00294 ± 0.00071	0.000412 ± 0.00014
A15C A39G G40A G59C	< 1e-05				
G29U G35A A48G A53C	< 1e-05		< 1e-05		
C16G G51A	< 1e-05	< 1e-05			< 1e-05
G29A G38A U46G C61U	< 1e-05	< 1e-05			
A15G C67U	0.000329 ± 5.2e-05	0.00828 ± 0.0017	0.00169 ± 0.00028	0.00538 ± 0.0014	0.000674 ± 0.00013
A15U C34G	< 1e-05	< 1e-05	< 1e-05		< 1e-05
A14U U49A	< 1e-05		< 1e-05		< 1e-05
A15G G32U U56G G60U	< 1e-05				
A15C A33C C50G C61G	0.000147 ± 3.9e-05	0.000196 ± 3.4e-05			
C16G C34A G38C U65C	< 1e-05				
A15G G29A	0.000133 ± 3.8e-05	0.0196 ± 0.0068	0.00108 ± 0.00019	0.00164 ± 0.00031	0.000309 ± 8.6e-05
C16U G41U A53U	3.27e-05 ± 1.6e-05	0.00071 ± 0.00015			
G29U G37C A39G U56A C61G	< 1e-05				
C16A C70U	5.31e-05 ± 7.6e-06	0.0015 ± 0.00026	0.000192 ± 2.7e-05	0.000365 ± 5.1e-05	0.000117 ± 3.3e-05

Variant	self-cleavage kobs at 40 uM GlcN6P (glucosamine-6-phosphate [1]) [s⁻¹]	self-cleavage kobs at 10000 uM GlcN6P (glucosamine-6-phosphate [2]) [s⁻¹]	self-cleavage kobs at 640 uM GlcN6P (glucosamine-6-phosphate [3]) [s⁻¹]	self-cleavage kobs at 2500 uM GlcN6P (glucosamine-6-phosphate [4]) [s⁻¹]	self-cleavage kobs at 160 uM GlcN6P (glucosamine-6-phosphate [5]) [s⁻¹]
G29U G35U C70U	< 1e-05			< 1e-05	
G29U A33U G38C G40A	< 1e-05				
G29U C71A	5.78e-05 ± 1.4e-05	0.00103 ± 0.00015	0.000172 ± 4.8e-05	0.000288 ± 0.00011	
G29U C71U	0.000132 ± 1.2e-05	0.00363 ± 0.00043	0.000578 ± 0.0001	0.00226 ± 0.00052	0.000298 ± 2.9e-05
A15G C34A G62U	< 1e-05	< 1e-05			
A15G G43U A48C	< 1e-05			< 1e-05	
A15C G32U G60U	< 1e-05	< 1e-05			
G29U A42C C58A C67G	< 1e-05		< 1e-05	< 1e-05	
A15C G32U G40U	< 1e-05	5.23e-05 ± 1.4e-05			
A24U	0.002 ± 0.0003				
G29U A53C C68U	< 1e-05	3.37e-05 ± 1.6e-05			
C16U U30A C58G A73U	< 1e-05				
C16U G40U C68G	< 1e-05	< 1e-05			< 1e-05
C16G U65C C71G	< 1e-05	< 1e-05			
C16U A42G C61G	< 1e-05				
A15C G37U G40C U55G U65C U69C	< 1e-05				
C16U G35A	< 1e-05		< 1e-05		< 1e-05
A15G A53G	0.00127 ± 0.00016	0.0345 ± 0.008	0.0109 ± 0.0017	0.022 ± 0.0053	0.00183 ± 0.00039
A15G A64U C68U	< 1e-05				
A15G C34A	< 1e-05		< 1e-05		< 1e-05
C16A G26A C68G	3.64e-05 ± 1.7e-05	3.65e-05 ± 1.5e-05			
C16G A36G	< 1e-05	< 1e-05	< 1e-05		< 1e-05
C16G A36C	< 1e-05	< 1e-05	< 1e-05		
A15U C34A A52U	< 1e-05	< 1e-05			
C16G G21U	0.00012 ± 5.7e-05				
